Here are results for 22 molecules from US20240034792A1 (HARBOUR BIOMED SHANGHAI, published 2024).

Changes are numbered by the printed parent chain.

B1: PR005093 (VHH)
VHH: EVQLVETGGGLIQPGGSLRLSCAASGFNVSSHYMSWVRQAPGKGREWVSIIDGGGSTYYADSVKGRFTISRDNSKNRLYLQMNSLRAEDTAMYYCARATRVREANGYNYPFNYWGQGTLVTVSS
notes: Monovalent single-domain (VH) variant of PR002481 with Flag-6His tag
B2: PR005104 (VHH)
VHH: B1 VHH with G53I, G54S, R100A, R102A, A104K
notes: as for B1
B3: PR005098 (VHH)
VHH: B1 VHH with R100Q, A104K, N105G
notes: as for B1
B4: PR005102 (VHH)
VHH: B1 VHH with G53R, R100A, R102A, A104K
notes: as for B1
B5: PR005101 (VHH)
VHH: B1 VHH with G53K, S56G, R100A, R102A, A104K
notes: as for B1
B6: PR005096 (VHH)
VHH: B1 VHH with R102P, A104K, N105G
notes: as for B1
B7: PR005569 (antibody, human IgG1, V domains shown)
VH: B1 VHH with S31F, H32Y, G53K, G54S, D61A, R100E, A104K
notes: no light chain; also called anti-PD1 PR002481R2M4_E2 HCAb hIgG1
B8: PR005100 (VHH)
VHH: B1 VHH with G53R, T57K, R100A, R102A, A104K
notes: as for B1
B9: PR005585 (antibody, human IgG1, V domains shown)
VH: B1 VHH with N28T, H32F, G53K, G54A, R100E, A104K, N105Q
notes: no light chain; also called anti-PD1 PR002481Com_35 HCAb hIgG1
B10: PR005575 (antibody, human IgG1, V domains shown)
VH: B1 VHH with S30A, G53K, G54A, T57G, R100E, A104K, N105Q
notes: no light chain; also called anti-PD1 PR002481Com_24 HCAb hIgG1
B11: PR005103 (VHH)
VHH: B1 VHH with G53R, S56G, R100A, R102A, A104K
notes: as for B1
B12: PR005149 (VHH)
VHH: B1 VHH with G53K, G54A, T57G, R100E, A104K, N105Q
notes: as for B1
B13: PR005572 (antibody, human IgG1, V domains shown)
VH: B1 VHH with S30A, S31F, H32Y, G53K, R100E, A104K, N105Q
notes: no light chain; also called anti-PD1 PR002481Com_32 HCAb hIgG1
B14: PR005097 (VHH)
VHH: B1 VHH with R100A, A104K
notes: as for B1
B15: PR005099 (VHH)
VHH: B1 VHH with G53S, G54A, R100A, R102A, A104K
notes: as for B1
B16: PR005583 (antibody, human IgG1, V domains shown)
VH: B1 VHH with S30A, H32F, G53K, G54A, R100E, A104K, N105Q
notes: no light chain; also called anti-PD1 PR002481Com_29 HCAb hIgG1
B17: PR005578 (antibody, human IgG1, V domains shown)
VH: B1 VHH with S30A, H32Y, G53K, G54A, T57G, R100A, A104K, N105Q
notes: no light chain; also called anti-PD1 PR002481Com_27 HCAb hIgG1
B18: PR005577 (antibody, human IgG1, V domains shown)
VH: B1 VHH with S30A, H32Y, G53K, G54A, T57G, R100E, A104K, N105Q
notes: no light chain; also called anti-PD1 PR002481Com_26 HCAb hIgG1
B19: PR005574 (antibody, human IgG1, V domains shown)
VH: B1 VHH with G53K, G54A, T57G, R100E, A104K, N105Q
notes: no light chain; also called anti-PD1 PR002481R2M1_F1 HCAb hIgG1
B20: PR005571 (antibody, human IgG1, V domains shown)
VH: B1 VHH with S31F, H32Y, G53K, R100E, A104K, N105Q
notes: no light chain; also called anti-PD1 PR002481Com_31 HCAb hIgG1
B21: PR005570 (antibody, human IgG1, V domains shown)
VH: B1 VHH with S31F, H32Y, G53K, A60G, R100E, A104K
notes: no light chain; also called anti-PD1 PR002481R2M1_H3 HCAb hIgG1
B22: PR005573 (antibody, human IgG1, V domains shown)
VH: B1 VHH with G53K, G54A, T57G, D61A, R100E, A104K
notes: no light chain; also called anti-PD1 PR002481R2M3_D1 HCAb hIgG1

The first assay deals with T1, Human PD-1 protein with histidine and avi tags (ACRO Biosystems, PD1-H82E4) (human, UniProt Q15116 25-167).
T1 construct: Captured on streptavidin (SA) sensors in the BLI assay; not shown: histidine and avi tags
T1 sequence (Q15116 25-167 limits assumed): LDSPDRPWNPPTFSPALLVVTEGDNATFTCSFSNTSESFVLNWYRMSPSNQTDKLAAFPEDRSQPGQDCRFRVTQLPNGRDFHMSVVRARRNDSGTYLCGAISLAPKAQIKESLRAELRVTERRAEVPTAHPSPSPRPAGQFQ
The experiment in a line: BLI (Octet Red96e), PD-1 captured on SA sensor, 1:1 local fit. On the procedure: (§1) Human PD-1 proteins with histidine and avi tags were purchased from the manufacturer ACRO Biosystems (Cat#: PD1-H82E4), and the assay buffer was 1× kinetics buffer (diluted from 10× kinetics buffer (ForteBio, Cat#: 18-1105)) for kinetic assay and dilution of antigens and antibodies. The binding kinetics between the antigen and the antibody was analyzed by the biolayer interferometry (BLI) technique using an Octet molecular interaction analyzer (ForteBio, model: Octet Red96e).
(§2) When the binding kinetics between the antigen and the antibody was determined, the rotation speed of the sensor was set at 1000 rpm/min. The eight SA sensors placed in a column were first equilibrated in an assay buffer for 10 min and then used to capture PD-1 at a capture height of 0.5 nm. Thereafter, the SA sensors were equilibrated in the assay buffer for 100 s, and then were associated with each antibody diluted to a single concentration and with a row of blank buffer wells for 180 s, followed by dissociation for 600 s. A new column of SA sensors were used in each cycle.
(§3) When data analysis was performed using Octet Data Analysis software (Fortebio, version 11.0), the reference signals were subtracted by a single reference mode (reference well), the data were fitted by a “1:1 Local fitting” method, and the kinetic parameters of the binding of the antigen to the antibody were calculated to obtain kon (1/Ms) values, kdis (1/s) values and KD (M) values.
In general terms: BLI is a label-free optical method that tracks binding on a fibre tip over time.
In general, Kd refers to the free concentration of one partner at which half of the binding sites on the other are occupied at equilibrium, for simple one-to-one binding. A higher Kd goes with lower affinity. By koff is commonly meant a measure of how fast the partners let go of each other. A high value points to fast dissociation. A word on the kon: it is the second-order rate constant of association. Read a high kon as fast association. The molecule B1 gave a Kd of 4.82 nM, a koff of 0.000636 s⁻¹ and an association rate constant (kon) of 132000 M⁻¹ s⁻¹.
Consider B2, for which the Kd turned out to be 3.08 nM, the dissociation rate constant (koff) stood at 0.000243 s⁻¹ and the on-rate (kon) stood at 79000 M⁻¹ s⁻¹.
On the same counts, the results for B3 are 5.88 nM, 0.000394 s⁻¹ and 67100 M⁻¹ s⁻¹.
For B4, binding was put at a Kd of 5.99 nM, the koff is 0.000268 s⁻¹ and the kon came out at 44800 M⁻¹ s⁻¹.
As to B5, binding was characterised by a dissociation constant (Kd) of 58.8 nM, the off-rate (koff) came out at 0.000173 s⁻¹ and the on-rate constant (kon) amounted to 2940 M⁻¹ s⁻¹.
Molecule B6 yielded a dissociation constant (Kd) of 10.4 nM, a koff of 0.000599 s⁻¹ and an on-rate constant (kon) of 57900 M⁻¹ s⁻¹.
With B7, the equilibrium dissociation constant (Kd) came out at 0.482 nM, the koff turned out to be 5.75e-06 s⁻¹ and the kon was found to be 11900 M⁻¹ s⁻¹.
On to B8, for which the dissociation constant (Kd) was determined as 11.6 nM, the koff stood at 0.000301 s⁻¹ and the on-rate constant (kon) came out at 26000 M⁻¹ s⁻¹.
Taken in the same sequence, the figures for B9 were 3.08 nM, 2.22e-05 s⁻¹ and 13200 M⁻¹ s⁻¹.
Molecule B10 displayed a Kd of 6.46 nM, a koff of 4.28e-05 s⁻¹ and a kon of 12900 M⁻¹ s⁻¹.
Taken in the same sequence, the figures for B11 were 79.6 nM, 0.000252 s⁻¹ and 3160 M⁻¹ s⁻¹.
In the case of B12, the dissociation constant Kd was determined as 14 nM, the koff amounted to 4.83e-05 s⁻¹ and the kon is 3450 M⁻¹ s⁻¹.
Taken in the same sequence, the figures for B13 were 3.32 nM, 4.28e-05 s⁻¹ and 12900 M⁻¹ s⁻¹.
Regarding B14, the Kd turned out to be 13.9 nM, the koff is 0.000784 s⁻¹ and the kon came out at 56600 M⁻¹ s⁻¹.
As for B15, the Kd was 4.32 nM, the koff is 0.000455 s⁻¹ and the kon was 105000 M⁻¹ s⁻¹.
Molecule B16 came in with a Kd of 1.69 nM, a koff of 1.65e-05 s⁻¹ and a kon of 8280 M⁻¹ s⁻¹.

For another assay, the target named is T2, Human PD-1 expressed on CHO-K1 cells (CHO-K1/hPD-1) (human, UniProt Q15116 25-288).
T2 construct: whole, on cells; also called CHO-K1 cells overexpressing human PD-1
T2 sequence (Q15116 25-288): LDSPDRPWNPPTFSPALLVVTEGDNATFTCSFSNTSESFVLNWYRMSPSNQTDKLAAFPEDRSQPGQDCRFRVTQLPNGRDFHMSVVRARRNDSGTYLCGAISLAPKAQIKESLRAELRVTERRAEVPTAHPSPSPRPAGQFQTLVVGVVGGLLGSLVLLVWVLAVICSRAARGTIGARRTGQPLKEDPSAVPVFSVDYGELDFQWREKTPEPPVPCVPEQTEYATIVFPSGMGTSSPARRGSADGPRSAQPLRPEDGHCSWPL
As to the kind of experiment: FACS, CHO-K1/hPD-1 cells. A general note: Flow cytometry measures light scatter and fluorescence of single cells or particles in a stream.
The term EC50 denotes the concentration giving half of the maximal effect. Consider B17, for which the response was half-maximal at 4.28 nM (EC50) and the “Maximum (MFI)” value worked out at 2.71e+06.
Taken in the same sequence, the figures for B7 were 3.4 nM and 3.14e+06.
Turning to B9, it took 7.83 nM to reach a half-maximal effect (EC50) and the “Maximum (MFI)” value was 3.11e+06.
On the same counts, the results for B10 are 3.93 nM and 2.58e+06.
On the same counts, the results for B18 are 6.5 nM and 2.49e+06.
In the case of B13, a half-maximal response (EC50) required 4.68 nM and the “Maximum (MFI)” value was determined as 3.04e+06.
Taken in the same sequence, the figures for B16 were 4.79 nM and 2.76e+06.

The next assay deals with T2, Human PD-1 expressed on CHO-K1 cells …. The experiment in a line: FACS, CHO-K1/hPD-1 cells. This is another data set of the same source. As for the experimental part:
(§4) In order to investigate the in vitro binding activity of the PD-1 antigen-binding proteins to human/cynomolgus monkey PD-1, the binding assay at the cellular level was performed using a CHO-K1 cell strain overexpressing human or cynomolgus monkey PD-1 (CHO-K1/hPD-1 or CHO-K1/cyno PD-1, from GenScript). Briefly, the CHO-K1-hPD-1 cells were digested and resuspended in an F-12K complete medium, and the cell density was adjusted to 1×10⁶ cells/mL. The cells were seeded in a 96-well V-bottom plate (Corning, Cat#3894) at 100 μL/well, followed by the addition of the test antigen-binding proteins with concentrations 2-fold of final concentrations obtained by 5-fold gradient dilution were each added at 100 μL/well. The mixtures were well mixed. The maximum final concentration of the antigen-binding proteins was 100 nM or 300 nM. A total of 8-11 concentrations were set. hIgG was used as a control. The cells were incubated at 4° C. for 1 h away from light. Thereafter, the cells in each well were rinsed twice with 100 μL of pre-cooled PBS, and centrifuged at 500 g at 4° C. for 5 min, and then the supernatant was discarded. Then 100 μL of a fluorescent secondary antibody (goat anti-human IgG (H+L) secondary antibody, Alexa Fluor® 488 conjugate, Invitrogen, Cat #A11013, 1:1000) was added to each well. The plate was incubated away from light at 4° C. for 30 min. The cells in each well were rinsed twice with 200 μL of pre-cooled PBS, and centrifuged at 500 g at 4° C. for 5 min, and then the supernatant was discarded. Finally, the cells in each well were resuspended in 200 μL of pre-cooled PBS, and the fluorescence signal values were read using a BD FACS CANTOII.
For B12, the EC50 is 10.9 nM and the “MFI Maximum” value was 11100.

Another assay has the same target. As to the kind of experiment: FACS, CHO-K1/hPD-1 cells. The source holds these as a separate data set. On the procedure: as §4
On to B1, for which the EC50 was determined as 10.5 nM and the “MFI Maximum” value was 4530.
Consider B2, for which the EC50 was 11.8 nM and the “MFI Maximum” value amounted to 7300.
Turning to B3, a half-maximal response (EC50) required 18.4 nM and the “MFI Maximum” value is 5720.
In the case of B4, the EC50 stood at 12.2 nM and the “MFI Maximum” value was determined as 6560.
Taken in the same sequence, the figures for B5 were 22.1 nM and 6900.
Taken in the same sequence, the figures for B6 were 27.6 nM and 4320.
Taken in the same sequence, the figures for B8 were 19 nM and 6510.
Turning to B11, a half-maximal response (EC50) required 14.5 nM and the “MFI Maximum” value came out at 6890.
As to B14, the EC50 was determined as 17.9 nM and the “MFI Maximum” value turned out to be 4080.
Taken in the same sequence, the figures for B15 were 15.4 nM and 6350.

Another assay has the same target. As to the kind of experiment: FACS, CHO-K1/hPD-1 cells. The source holds these as a separate data set.
Consider B19, for which a half-maximal effect (EC50) was put at 3.91 nM and the “Maximum (MFI)” value is 2.82e+06.
On the same counts, the results for B20 are 6.55 nM and 2.95e+06.
Take B21: the 50% effective concentration (EC50) is 6.54 nM and the “Maximum (MFI)” value stood at 3.18e+06.
On the same counts, the results for B22 are 4.73 nM and 3.08e+06.

For another assay, the target named is T1, Human PD-1 protein with histidine and …. As to the kind of experiment: BLI; ratio of kdis, apparently PR005090 over the variant. As for the experimental part:
as §1, §2, §3
For the molecule B1, the kdis ratio is 1.8.
B2: the kdis ratio was found to be 4.7.
For the molecule B3, the kdis ratio was determined as 2.9.
As to B4, the kdis ratio was determined as 4.25.
The same measure, in the same setting: next, B5: 6.61; B6: 1.91.
On the same count and under the same terms, next, B8: 3.8; B11: 4.54; B12: 23.7.
The same measure, in the same setting: next, B14: 1.46; B15: 2.51.
